Where a chain is given by its changes, count along the chain named.
B1: Control I (palivizumab sequence) (antibody, V domains shown)
VH: QVTLRESGPALVKPTQTLTLTCTFSGFSLSTSGMSVGWIRQPPGKALEWLADIWWDDKKDYNPSLKSRLTISKDTSKNQVVLKVTNMDPADTATYYCARSMITNWYFDVWGAGTTVTVSS
VL: DIQMTQSPSTLSASVGDRVTITCKCQLSVGYMHWYQQKPGKAPKLLIYDTSKLASGVPSRFSGSGSGTEFTLTISSLQPDDFATYYCFQGSGYPFTFGGGTKLEIKR
notes: also called Control 1; SYNAGIS
B2: Control II (motavizumab sequence) (antibody, V domains shown)
VH: B1 VH with S32A, D60H, S67D, S100D, T103F, W105F, A112Q
VL: B1 VL with K24S, C25A, Q26S, L27S, S28R, L103V
B3: H1H3592P3 (antibody, V domains shown)
VH: EVQLVESGGDLVQPGRSLRLSCVASGFTFDDYAMHWVRQAPGKGLEWVSGVSWSGSTVGYADSVKGRFTVSRDNAQKSLYLQMNSLRAEDTALYYCVKDAYKFNYYYYGLDVWGQGTTVTVSS
VL: EIVMTQSPATLSVSPGERATLSCRASQTILSNLAWYLQKPGQAPRLLIYGASTRATGLPARFSGSGSGTEFTLTISSLQSEDFAVYYCQQYNNWPLTFGGGTKVEIK

What was measured:
[1] = target: RSV-F of RSV subtype A clinical isolate A1998/12-21 (respiratory syncytial virus subtype A, …); assay: cell-based or functional assay
[2] = target: RSV-F of RSV subtype A clinical isolate A1998/3-2 (respiratory syncytial virus subtype A, …); assay: cell-based or functional assay
[3] = target: RSV-F of RSV subtype A clinical isolate A2001/3-12 (respiratory syncytial virus subtype A, …); assay: cell-based or functional assay
[4] = target: RSV-F of RSV subtype A clinical isolate A2001/2-20 (respiratory syncytial virus subtype A, …); assay: cell-based or functional assay
[5] = target: RSV-F of RSV subtype A clinical isolate A2000/3-4 (respiratory syncytial virus subtype A, …); assay: cell-based or functional assay
[6] = target: RSV-F of RSV subtype A clinical isolate A1997/12-35 (respiratory syncytial virus subtype A, …); assay: cell-based or functional assay
[7] = target: T1, RSV-F of RSV subtype A strain A2 (1540) (respiratory syncytial virus subtype A, …, UniProt P03420 26-574); assay: cell-based or functional assay
[8] = target: RSV-F of RSV subtype B strain 18537 (respiratory syncytial virus subtype B, …, UniProt P13843 26-574); assay: cell-based or functional assay
[9] = target: RSV-F of RSV subtype B strain 1400 (respiratory syncytial virus subtype B, …); assay: cell-based or functional assay
[10] = target: T2, RSV-F of RSV subtype B strain 9320 (respiratory syncytial virus subtype B, …); assay: cell-based or functional assay
[11] = target: T3, RSV-F of RSV subtype A strain Long (respiratory syncytial virus subtype A, …, UniProt P12568 26-574); assay: cell-based or functional assay
[12] = target: RSV-F of RSV subtype B strain 1A2 (respiratory syncytial virus subtype B, …); assay: cell-based or functional assay
[13] = target: T2, RSV-F of RSV subtype B strain 9320; assay: cell-based or functional assay; remark: listed apart in the source
[14] = target: T4, RSV-F of RSV subtype B strain 1580 (respiratory syncytial virus subtype B, …); assay: cell-based or functional assay
[15] = target: T1, RSV-F of RSV subtype A strain A2 (1540); assay: cell-based or functional assay; remark: listed apart in the source
[16] = target: RSV-F S173T of escape mutant RSV/B S173T (respiratory syncytial virus subtype B, …); assay: cell-based or functional assay
[17] = target: RSV-F S173T/T174K of escape mutant RSV/B S173T/T174K (respiratory syncytial virus subtype B, …); assay: cell-based or functional assay
[18] = target: RSV-F S173Y of escape mutant RSV/A S173Y (respiratory syncytial virus subtype A, …, UniProt P03420 26-574); assay: cell-based or functional assay
[19] = target: T4, RSV-F of RSV subtype B strain 1580; assay: cell-based or functional assay; remark: listed apart in the source
[20] = target: RSV-F T174K of escape mutant RSV/B T174K (respiratory syncytial virus subtype B, …); assay: cell-based or functional assay
[21] = target: T5, RSV-F.mmh (Respiratory Syncytial Virus); assay: SPR (Biacore), mAb captured via Fc, soluble RSV-F.mmh injected, 25 C
T5 construct: also called recombinant RSV-F; soluble monomeric RSV-F

[22] = target: T1, RSV-F of RSV subtype A strain A2 (1540); assay: cell-based or functional assay; remark: listed apart in the source
[23] = target: T1, RSV-F of RSV subtype A strain A2 (1540); assay: cell-based or functional assay; remark: listed apart in the source
[24] = target: T3, RSV-F of RSV subtype A strain Long; assay: cell-based or functional assay; remark: listed apart in the source
[25] = target: T1, RSV-F of RSV subtype A strain A2 (1540); assay: cell-based or functional assay; remark: listed apart in the source

| Binder | IC50 (pM), RSV micro-neutralization, clinical isolate [1] | IC50 (pM), RSV micro-neutralization, clinical isolate [2] | IC50 (pM), RSV micro-neutralization, clinical isolate [3] | IC50 (pM), RSV micro-neutralization, clinical isolate [4] | IC50 (pM), RSV micro-neutralization, clinical isolate [5] | IC50 (pM), RSV micro-neutralization, clinical isolate [6] | IC50 (pM), RSV micro-neutralization, A/A2 [7] | IC50 (pM), RSV micro-neutralization, B/18537 [8] | IC50 (pM), RSV micro-neutralization, B/1400 [9] | IC50 (pM), RSV micro-neutralization, B/9320 [10] | IC50 (pM), RSV micro-neutralization, A/Long [11] | IC50 (pM), RSV micro-neutralization, B/1A2 [12] | RSV-9320 Neutral. IC50 [pM] [13] | RSV - 1580 Neutral. IC50 [pM] [14] | Neutralization IC50, pM (microneutralization, wt subtype A) [15] | Neutralization IC50, pM (microneutralization, escape mutant) [16] | Neutralization IC50, pM (microneutralization, wt subtype B) [19] | IC50 [pM] for RSV A2 Neutralization, Trial 7 [22] | RSV-A2 (1540) Neutral. IC50 [pM] [23] | RSV-Long Neutral. IC50 [pM] [24] | further results |
| --- | --- | --- | --- | --- | --- | --- | --- | --- | --- | --- | --- | --- | --- | --- | --- | --- | --- | --- | --- | --- | --- |
| B1 | 580 pM | 344 pM | 1260 pM | 935 pM | 899 pM | 478 pM | 2080 pM | 1190 pM | 113 pM | 338 pM | 752 pM | 223 pM | 460 pM | 375 pM | 1140 pM | 1900 pM | 1900 pM | 250 pM | 360 pM | 536 pM | Neutralization IC50, pM (microneutralization, escape mutant) [17]: 980 pM; Neutralization IC50, pM (microneutralization, escape mutant) [18]: 1710 pM; Neutralization IC50, pM (microneutralization, escape mutant) [20]: 640 pM; Kd [21]: 38.1 nM; t½ [21]: 4 min; IC50 [pM] for RSV A2 Neutralization, Trial 1 [22]: 1820 pM; IC50 [pM] for RSV A2 Neutralization, Trial 2 [22]: 950 pM; IC50 [pM] for RSV A2 Neutralization, Trial 3 [22]: 290 pM; IC50 [pM] for RSV A2 Neutralization, Trial 5 [22]: 160 pM; IC50 [pM] for RSV A2 Neutralization, Trial 6 [22]: 500 pM; IC50 of blocking viral fusion (antibody added after viral attachment at 4 C, infection read by ELISA) [25]: 1 nM |
| B2 | 68 pM | 36 pM | 129 pM | 74 pM | 88 pM | 41 pM | 202 pM | 187 pM | 38 pM | 76 pM | 83 pM | 40 pM | 56 pM | 43 pM | 108 pM | 177 pM | 260 pM | 12 pM | 14 pM | 65 pM | RSV-9320 neutralization, Fold Improvement Relative to Control 1 [13]: 8.2 fold; RSV - 1580 neutralization, Fold Improvement Relative to Control 1 [14]: 8.7 fold; Neutralization IC50, pM (microneutralization, escape mutant) [17]: 218 pM; Neutralization IC50, pM (microneutralization, escape mutant) [18]: 170 pM; Neutralization IC50, pM (microneutralization, escape mutant) [20]: 108 pM; IC50 [pM] for RSV A2 Neutralization, Trial 1 [22]: 50 pM; IC50 [pM] for RSV A2 Neutralization, Trial 2 [22]: 30 pM; IC50 [pM] for RSV A2 Neutralization, Trial 3 [22]: 23 pM; IC50 [pM] for RSV A2 Neutralization, Trial 4 [22]: 20 pM; IC50 [pM] for RSV A2 Neutralization, Trial 5 [22]: 12 pM; IC50 [pM] for RSV A2 Neutralization, Trial 6 [22]: 12 pM; RSV-A2 (1540) neutralization, Fold Improvement Relative to Control 1 [23]: 25 fold; RSV-Long neutralization, Fold Improvement Relative to Control 1 [24]: 8.2 fold |
| B3 | 34 pM | 35 pM | 66 pM | 43 pM | 50 pM | 40 pM | 140 pM | 230 pM | 33 pM | 151 pM | 44 pM | 48 pM | 100 pM | 31 pM | 177 pM |  | 290 pM | 10 pM | 10 pM | 15 pM | RSV-9320 neutralization, Fold Improvement Relative to Control 1 [13]: 4.6 fold; RSV - 1580 neutralization, Fold Improvement Relative to Control 1 [14]: 12 fold; Kd [21]: 8.43 nM; koff [21]: 0.000747 s⁻¹; kon [21]: 88600 M⁻¹ s⁻¹; t½ [21]: 15 min; RSV-A2 (1540) neutralization, Fold Improvement Relative to Control 1 [23]: 36 fold; RSV-Long neutralization, Fold Improvement Relative to Control 1 [24]: 35 fold; IC50 of blocking viral fusion (antibody added after viral attachment at 4 C, infection read by ELISA) [25]: 0.23 nM |
